According to publication PMC3090270 (Structure (London, England : 1993), 2010):

Legend:
Test in all cases: fluorescence polarisation
[1] = target: Bovine full-length RIα, wild type (bovine, UniProt P00514 1-380)
[2] = target: Bovine full-length RIα C16A (bovine)
[3] = target: Bovine full-length RIα C37A (bovine)
[4] = target: Bovine full-length RIα Y19A (bovine)
[5] = target: Bovine full-length RIα H23A (bovine)

Chain of Bovine full-length RIα, wild type (P00514 whole entry): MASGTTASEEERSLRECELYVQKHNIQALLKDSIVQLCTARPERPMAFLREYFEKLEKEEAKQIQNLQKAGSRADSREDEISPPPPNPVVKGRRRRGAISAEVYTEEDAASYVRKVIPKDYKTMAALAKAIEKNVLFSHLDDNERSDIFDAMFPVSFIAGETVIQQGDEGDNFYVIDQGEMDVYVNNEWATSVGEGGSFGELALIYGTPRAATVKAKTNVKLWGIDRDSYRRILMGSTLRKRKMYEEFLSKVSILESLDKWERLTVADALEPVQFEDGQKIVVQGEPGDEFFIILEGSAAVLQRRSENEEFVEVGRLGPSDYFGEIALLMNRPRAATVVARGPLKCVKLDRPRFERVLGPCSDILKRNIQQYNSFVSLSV

- Kd [1]: 48 nM
- Kd [2]: 126 nM
- Kd [3]: 745 nM
- Kd [4]: 1330 nM
- Kd [5]: 198 nM
B1: D-AKAP2 AKB peptide (residues 623-650), last residue changed to Cys, fluorescently labeled (peptide)
chain: VQGNTDEAQEELAWKIAKMIVSDVMQQC
modifications: fluorescin-5-maleimide or tetramethylrhodamine-5-maleimide on the Cys that replaces the last residue
